Residue numbers refer to the chain shown, from its start.
B1: SCT-Fa134 (antibody, V domains shown)
VH: QVQLQQPGAELVRPGSSVKLSCKASGYNFTNYWIDWVKQRPGQGLAWIGDIYPSDNKTHYNQNFKGKATLTVDKSSNTAYMQLSSLTSEDSAVYYCAASMDYWGQGTSVTVSS
VL: DIVMTQSPSSLTVTAGEKVTMSCKSSQSLLNSKNQKNFLTWYQQKPGQPPKLLIYWASTRESGVPDRFTGSASGTDFTLTISSVQAEDLAVYYCQNDYSYPYTFGGGTKLEIK
notes: murine IgG
B2: SCT-Fa135 (antibody, V domains shown)
VH: B1 VH with N31S, A46E, N56S, S85N, A98T
VL: B1 VL with S99D
notes: murine IgG
B3: SCT-Fa111 (antibody, V domains shown)
VH: QVQLKQSGPGLVQPSQSLSITCTVSGFSLISYGVHWVRQSPGKGLEWLGIIWSGGNTDYNAAFISRLSISKDNSKSQVFFKLNSLQADDTAIYYCARTANALDYWGQGTSVTVSS
VL: DVLMTQTPLSLPVSLGDQASISCRSSQTIVHSNGNTYLEWYLQKPGQSPKLLIYKVSNRFSGVPDRFSGSGSGTDFTLKISRVEAEDLGVYYCFQGSHVPWTFGGGTKLEIK
notes: murine IgG
B4: SCT-Fa116 (antibody, V domains shown)
VH: QVQLQQPGAELVKPGASVKLSCKASGYSFISSWMEWVKQRPGQGLEWIGRIHPSDSDTNYNQKFKAKATLTVDKSSSTAYMQLSSLTSEDSAVYYCAIIHRGFYFAMDYWGQGTSVTVSS
VL: B3 VL with T28S
notes: murine IgG
B5: SCT-Fa120 (antibody, V domains shown)
VH: QVQLQQPGAELVKPGASVKVSCKASGYSFISYWMYWVKQRPGQGLEWIGRIHPSDSDTNYNQKYKGKATLTVDRSSSTAYMQLSSLTSEDSAVYYCTISHYSGSSPETYWGQGTTLTVSS
VL: B3 VL with T28S, W101Y
notes: murine IgG
B6: SCT-Fa121 (antibody, V domains shown)
VH: QVQLQQPGAELVKPGASVKVSCKASGYTFISHWMYWVRQRPGQGLEWIGRIHPSDSDTDYSQEFKGKATLTVDKSSSTAHMQLSSLTSEDSAVYYCAIWSYYYGSRLDYWGQGTTLTVSS
VL: B3 VL with T7A, L9P, T28N, K44R, F94C, W101Y
notes: murine IgG
B7: SCT-Fa142 (antibody, V domains shown)
VH: QVQLQQPGAELVRPGTSVRLSCKASGYSFTIYWMHWVKQRPGQGLEWIGVIDPSTSNTDYNQKFKGKATLTVDTSSSTAYMQLRSLSSEDSAVYYCARNDYDGGYFDYWGQGTTLTVSS
VL: B3 VL with L3V, T28R, I29L, E39H, P45T, Y92F, F94S, G96S, S97T
notes: murine IgG
B8: SCT-Fa119 (antibody, V domains shown)
VH: B4 VH with L20V, A66G
VL: B3 VL with T28S
notes: murine IgG
B9: SCT-Fa150 (antibody, V domains shown)
VH: B6 VH with L11V, T28S, S105T
VL: B3 VL with L9P, T28N, K44R, F94C, W101Y
notes: murine IgG
B10: SCT-Fa136 (antibody, V domains shown)
VH: QVQLQQPGAELVRPGTSVKLSCKASGYTFINYWMHWVKQRPGQGLEWIGVIDPSHTSTSYNQKFKGKATLTVDTSSTTTSMQLTSLTSEDSAVYYCARNDYDGGYFDYWGQGTTLTVSS
VL: DVVMTQIPLSLPVSLGDQASISCRSSQSLVHSNGNTYLHWYLQKPGQSPKLLIYTVSNRFSGVPDRFSGSGSGTDFTLKISRLEAEDLGVYFCSQTTHVPWTFGGGTKLEIK
notes: murine IgG
B11: SCT-Fa143 (antibody, V domains shown)
VH: QVQLQQPGAELVRSGTSVKLSCKASGYTFISYWMHWVKQRPGQGLEWIGVIDPSDTNTNYNQKFRGKATLTVDTSSSTAYMQLSSLTSEDSAVYFCARNDYDGGYFDYWGQGTTLTVSS
VL: B10 VL with I7T, V13G, P45S, T55K, L83V, V90L
notes: murine IgG
B12: SCT-Fa141 (antibody, V domains shown)
VH: B11 VH with S14P, K19N, I30T, I48L, T56S, R65K, F95Y, A97S
VL: B10 VL with I7T, L83V, V90I, T96S
notes: murine IgG
B13: SCT-Fa138 (antibody, V domains shown)
VH: B7 VH with R19K, S28T, I31R, K38R, T55S, N57S, R84S, S87T
VL: B10 VL with I7S, N35I, K50N, T55K, L83V
notes: murine IgG
B14: SCT-Fa127 (antibody, V domains shown)
VH: QVQLQQPGAELVMPGASVKLSCKASGYTFTTYWMHWVKQRPGQGLEWIGEIDPSDGYSNYNQNFKGKATLTVDKSSSTAYLQLSSLTSEDSAVYYCARNYGSNYVGYFDYWGQGTTLTVSS
VL: DIQMTQTTSSLSASLGDRVTISCRSSQDISNYLNWYQQKPDGTVKLLIYYTSRLHSGVPSSFSGSGSGTDYSLTISNLEQEDIATYFCQQANALPWTFGGGTKLEIK
notes: murine IgG
B15: SCT-Fa144 (antibody, V domains shown)
VH: B14 VH with M13T, G56S, S58R, N63K, L81M, T116A
VL: B14 VL with S25A, S30T, K39R, S61R, E79A, E81G, N92S, A93T, E105D
notes: murine IgG
B16: SCT-Fa133 (antibody, V domains shown)
VH: B14 VH with P14S, K38R, G56S, Y60N, G66A, L81M, S84G
VL: B14 VL with T7S, S25A, S30T, Y50H, S56A, S61R, E79D, A91G
notes: murine IgG
B17: SCT-Fa130 (antibody, V domains shown)
VH: B14 VH with K19R, K38R, G56S, S58T, Y110H
VL: B14 VL with S25A
notes: murine IgG
B18: SCT-Fa122 (antibody, V domains shown)
VH: B14 VH with K23E, Y32F, M34I, G56S, S58T
VL: B14 VL with S25A, T85I
notes: murine IgG
B19: SCT-Fa126 (antibody, V domains shown)
VH: B14 VH with T31S, G56S, N63K, L81M, S84I
VL: B14 VL with S25A, H55L, S61R, A91G, A93T, K103N
notes: murine IgG
B20: SCT-Fa125 (antibody, V domains shown)
VH: B14 VH with T31S, G56N, S58T, N63K, K74G, L81M
VL: B14 VL with S25A, D28G, L54F, S61R, A91G, A93S
notes: murine IgG
B21: SCT-Fa124 (antibody, V domains shown)
VH: B14 VH with T30S, G56S, S58T, L81M, Y110H, Q113R
VL: B14 VL with S25A, E79A, A91G
notes: murine IgG
B22: SCT-Fa123 (antibody, V domains shown)
VH: B14 VH with T30N, G56S, S58T, K65N
VL: B14 VL with S25A, H55P, N92K
notes: murine IgG
B23: SCT-Fa129 (antibody, V domains shown)
VH: B14 VH with G56S, S58T, N63K, L81M
VL: B14 VL with M4L, S22N, S25A, H55L, N77S, A91G, N92K
notes: murine IgG
B24: SCT-Fa128 (antibody, V domains shown)
VH: B14 VH with G56S, N63K, L81M
VL: B14 VL with M4L, S22N, S25A, H55L, N77S, A91G, N92K
notes: murine IgG
B25: SCT-Fa131 (antibody, V domains shown)
VH: B14 VH with K19R, A24T, T30S, G56S, S58T, L81M, Q82K
VL: B14 VL with T8A, S25A, S30N, A91G, G99S
notes: murine IgG
B26: SCT-Fa132 (antibody, V domains shown)
VH: B14 VH with G15R, T31S, S58T, Q62H, N63K, L81M
VL: B14 VL with S25A, P40R, L54F, S61R, A91G, A93T
notes: murine IgG
B27: SCT-Fa190 (antibody, V domains shown)
VH: B14 VH with Q5R, T30N, G56S, S58T
VL: B14 VL with S25A, H55P, N92K
notes: murine IgG
B28: SCT-Fa113 (antibody, V domains shown)
VH: QVQLQQPGAEFVKPGASVKLSCEASGNTFTSYWIQWVKQRPGQGLEWIGEIDPSDSYIDYNQKFKDKATLTVDTSSSTAYMHLSSLTSEDSAVYYCAREGAYSSPFAYWGQGTLVTVSA
VL: DILMTQSPSSMSVSLGDTISIICHASQDIRSNIGWLQQKPGKSFKGLIYHGSNLEDGVPSRFSGSGSGADYSLTISSLESEDFADYYCVQYIQFPRTFGGGTKVEIK
notes: murine IgG
B29: SCT-Fa082 (antibody, V domains shown)
VH: QGQLQQPGAEVVKPGAAVKLSCKASGYTFTSYWMQWIKQRPGQGLEWIGEIDPSDNYTDYNQNFKGKATLTVDTSSSTAYLQLSSLTSEDSAVYYCAREGAFSSPFAYWGPGTLVTVSS
VL: B28 VL with I19V, S52T, I92V, V104L
notes: murine IgG
B30: SCT-Fa081 (antibody, V domains shown)
VH: B29 VH with R98K
VL: B28 VL with I19V, S52T, I92V, V104L
notes: murine IgG
B31: SCT-Fa080 (antibody, V domains shown)
VH: B29 VH with N63H
VL: B28 VL with I19V, S52T, I92V, V104L
notes: murine IgG
B32: SCT-Fa078 (antibody, V domains shown)
VH: B29 VH with E46D, S77N
VL: B28 VL with I19V, S52T, I92V, V104L
notes: murine IgG
B33: SCT-Fa148 (antibody, V domains shown)
VH: B29 VH with G2V, A17S, I37V, L81M, R98K, F102Y, S119A
VL: B28 VL with I19V, S20T, Q37R, K42T, S52T, I92V, V104L
notes: murine IgG
B34: SCT-Fa118 (antibody, V domains shown)
VH: QVQLQQPGAELVKPGASVKLSCKASGYTFISYWMHWVKQRPGRGLEWIGRIDPNSGDTKYNEKFKSKATLTVDKPSSTAYMQLSSLISEDSAVYYCARWGWDAFAYWGQGTLVTVSA
VL: DAVMTQTPLSLPVSLGDQASISCRSSQSLENSDGNTYLNWYFQKTGQSPQLLIYRVSNRFSGVLDRFSGSGSGTDFTLKISRVEAEDLGVYFCLQVTHVPPTFGAGTKLELK
notes: murine IgG

Target: T1, Human TIM-3 Human Fc tagged protein (human, fluorescently labeled with HiLyte Fluor 555 (sites not given))
T1 construct: Bought construct; also called TIM-3 protein tagged with human Fc; ACROBiosystems catalog no: TM3-H5258
Test: capture slide probed with labeled TIM-3-Fc;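 further: IgG from single CD138-enriched plasma cells, isolated from lymphocytes, immobilized on a derivatized glass slide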

binding result | Binder
binds | B1
binds | B2
binds | B3
binds | B4
binds | B5
binds | B6
binds | B7
binds | B8
binds | B9
binds | B10
binds | B11
binds | B12
binds | B13
binds | B14
binds | B15
binds | B16
binds | B17

binding result | Binder
binds | B18
binds | B19
binds | B20
binds | B21
binds | B22
binds | B23
binds | B24
binds | B25
binds | B26
binds | B27
binds | B28
binds | B29
binds | B30
binds | B31
binds | B32
binds | B33
binds | B34
